Values belong to the molecule of their own block, whether it stands above or below them.
B1: Tim17 with an affinity tag, overexpressed (natural protein)
chain: MSADHSRDPCPIVILNDFGGAFAMGAIGGVVWHGIKGFRNSPLGERGSGAMSAIKARAPVLGGNFGVWGGLFSTFDCAVKAVRKREDPWNAIIAGFFTGGALAVRGGWRHTRNSSITCACLLGVIEGVGLMFQRYAAWQAKPMAPPLPEAPSSQPLQA
modifications: disulfide bond between Cys10 and Cys77
B2: Tim23, overexpressed (natural protein)
chain: MSWLFGDKTPTDDANAAVGGQDTTKPKELSLKQSLGFEPNINNIISGPGGMHVDTARLHPLAGLDKGVEYLDLEEEQLSSLEGSQGLIPSRGWTDDLCYGTGAVYLLGLGIGGFSGMMQGLQNIPPNSPGKLQLNTVLNHITKRGPFLGNNAGILALSYNIINSTIDALRGKHDTAGSIGAGALTGALFKSSKGLKPMGYSSAMVAAACAVWCSVKKRLLEK

How the values were obtained:
Tim23, overexpressed [1] = target: B2; assay: cryo-EM structure
[2] = target: Tim17 with an affinity tag, overexpressed (S. cerevisiae) (UniProt P39515); assay: cryo-EM structure
Tim23, overexpressed [3] = target: B2; assay: pull-down
[4] = target: B1; assay: cryo-EM structure

stoichiometry N (Tim23, overexpressed [1]): 1
stoichiometry N [2]: 1
Molecule: Tim44, overexpressed (natural protein)

Molecule: B1
binding result (Tim23, overexpressed [3]): binds

Molecule: B2
stoichiometry N [4]: 1
